In this experiment the target is 4-phenylazo-benzyloxycarbonyl-L-Pro-Leu-Gly-L-Pro-D-Arg.HCl.

Turning to “Achromobacter collagenase gene product of Vibrio alginolyticus produced in recombinant Escherichia coli JM109 (plasmid pHUC14 or pLCO-1) (enzyme)”, the Collagenase activity was 189 U.

For the origin of these results see patent US5453371.
